Measured values taken from patent publication US20260234276A1 (DOMAIN THERAPEUTICS, published 2026).
Numbering of substitutions follows the chain as printed. “And” between values parts separate entries of the source, which are not always exact repeats. Equal values may be shown once.

B1: 3-11 (antibody, V domains shown)
VH: EVQLVESGGGLVQPKGSLKLSCAASGFTFNTYAMNWVRQAPGKGLEWVARIRSKSNNYATYYADSVKDRFTISRDDSQSMLYLQMNNLKTEDTAMYYCVRGREAYYRYDGGYYAMDYWGQGTSVTVSS
VL: DIVMTQAAPSVPVTPGESVSISCRSSKSLLHSNGNTYLYWFLQRPGQSPQLLIYRMSNLASGVPDRFSGSGSGTAFTLRISRVEAEDVGVYYCMQHLEYPFTFGSGTKLEIK
B2: 3-32 (antibody, V domains shown)
VH: B1 VH with T31A, V48L, L81F, T90S
VL: B1 VL with D1E, P9L, V11A, I21M
B3: 3-14 (antibody, V domains shown)
VH: B1 VH with K15T, K19R, T31A, N57D, A63G
VL: B1 VL with P12S, R24T, L97R
B4: 3-28 (antibody, V domains shown)
VH: EVQLQQSGPELLKPGTSVKISCTTSGYTFSDYTLHWVKQSHGKSLEWIGGITPKNGDTRYDPRFKDKATLTIDKSSSAAYMELRSLTSEDSAVYYCARVARFYGVSPYAMDYWGQGASVTVSS
VL: DVVMTQTPLSLPVSLGDQASISCRCTQSLLHSNGDTYLHWYLQKPGQSPKLLIYKVSNRFSGVPDRFSGSGSGTDFTLEITRVEAEDLGVYFCSQTTHVPYTFGGGTKLEIK
B5: 3-42 (antibody, V domains shown)
VH: QVQLKESGPGLVAPSQSLSITCTVSGFSLTDYRVSWIRQPPGKGLEWLGVIWGGRSTYYNSALKSRLSISKDNSKSQVFLKMNSLQTDDTAMYYCAKQGDGYYALDYWGQGTSVTVSS
VL: B4 VL with C25S, T26S, L30V, N33Y, D35N, S68H, E79K, T81S, T96S, Y101P
B6: 3-34 (antibody, V domains shown)
VH: EVQLQQSGPELVKPGASVKISCKTSGYTFTEYTIHWVKQSHGKSLEWVGGINPDNGNTRYDQKFKGKATLTIDKSSSTAYMELRSLTSEDSAVYYCARVARSSGSGPYAMDYWGQGTSVTVSS
VL: B4 VL with S32T, E79K, T81S, T96S
B7: 3-47 (antibody, V domains shown)
VH: QVQLQQPGAELVKPGASVKMSCKASGYTFTSYNMHWVKQTPGQGLEWIGAISPGNGDTSYNQKFKGKATLTADKSSSTAYMQLSSLTSEDSAVYYCARGKNGNVPMDYWGQGTSVTVSS
VL: DIVLTQSPASLAVSLGQRATISCRASESVEYYGTSLMKWYQQKPGQPPKLLIYAASIVESGVPARFSGSGSGTDFSLNIHPVEEDDIAMYFCQQSRKVPWTFGGGTKLEIK
B8: 3-31 (antibody, V domains shown)
VH: DVQLQESGPGLVKPSQSLSLTCTVTGYSITSNYAWNWIRQFPGNKLEWMVYITYSGSTRFNPSLKSRISITRDTSKNQFFLQLNSVTTEDTATYYCARGENLFAYWGQGTLVIVSA
VL: DVVMTQTPLSLPVSLGDQASISCRSSQSLVHNNGNTYLHWYLQKPGQSPKLLIYKVSNRFSGVPDRFSGSGSGTDFTLKINRLEAEDLGVYFCSQSTYVPLTFGAGTKLELK
B9: 3-44 (antibody, V domains shown)
VH: QVQLKESGPGLVAPSQSLSITCTVSGFSLTDYGVSWIRQPPGKGPEWLGVIWGGGNTYYNSVLKSRLSISNDNSKSQVFLRMNSLQTADTAIYYCARPRRDYYALDYWGQGTSVTVAS
VL: B8 VL with H31Y, N32T, Y37F, N81S, L83V, Y98H, L101P, A105G, L111I

molecular target: T1, human CCR8 (human, UniProt P51685 1-355); assay: cell-based or functional assay

IC50 (Gi2 BRET, pH 6.5) | IC50 (Gi2 BRET, pH 7.4) | Binder
0.03 µg/ml and 0.198 nM | 0.031 µg/ml and 0.21 nM | B1
0.071 µg/ml and 0.476 nM | 0.089 µg/ml and 0.596 nM | B2
0.034 µg/ml and 0.225 nM | 0.065 µg/ml and 0.434 nM | B3
0.044 µg/ml and 0.292 nM | 0.061 µg/ml and 0.405 nM | B4
0.516 µg/ml and 3.44 nM | 0.82 µg/ml and 5.47 nM | B5
0.207 µg/ml and 1.38 nM | 0.281 µg/ml and 1.88 nM | B6
0.175 µg/ml and 1.16 nM | 0.483 µg/ml and 3.22 nM | B7
0.163 µg/ml and 1.09 nM | 0.237 µg/ml and 1.58 nM | B8
0.578 µg/ml and 3.85 nM | 0.812 µg/ml and 5.41 nM | B9

molecular target: T1, human CCR8; assay: cell-based or functional assay; remark: another data set of the same source

hCCL1 (100 nM) residual response, Protocol #2, mAb 0.08 µg/mL | hCCL1 (100 nM) residual response, Protocol #2, mAb 0.4 µg/mL | hCCL1 (100 nM) residual response, Protocol #2, mAb 10 µg/mL | hCCL1 (100 nM) residual response, Protocol #3, mAb 0.05 µg/mL | hCCL1 (100 nM) residual response, Protocol #3, mAb 0.5 µg/mL | hCCL1 (100 nM) residual response, Protocol #3, mAb 5 µg/mL | Binder
60% | 36% | 19% | 74% | 68% | 48% | B1
88% | 57% | 46% | 73% | 36% | 36% | B2
72% | 49% | 28% | 75% | 36% | 22% | B3
79% | 38% | 17% | 102% | 64% | 47% | B4

molecular target: pm5 (human, sulfated tyrosines at Y15 and Y17); assay: ELISA on coated peptide [cont.]
Experimental: (§1) The specific binding properties of antibodies were evaluated by ELISA with coated CCR8 related peptides (500 ng/mL) in carbonate/bicarbonate buffer. Different peptides were used as described in Table 1 (see Example 1). Each anti-CCR8 mAb was tested at 1 μg/mL then diluted at 1/10. After an incubation at room temperature during 90 min, unbound mAbs were removed by washings. […] After washings, 3,3′,5,5′-tetramethylbenzidine (TMB) (Interchim, Montlugon, France) was added for 15 min. Then the optical density (OD) was determined by using a multiplate reader (Tecan, Lyon, France) and correlated with mAb reactivity on the panel of coated peptides.

Sequence of pm5 (human, sulfated tyrosines at Y15 and Y17) (peptide, as listed by the source): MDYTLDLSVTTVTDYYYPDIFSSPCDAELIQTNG

binding result | Binder
binds | B1
binds | B2
binds | B3
binds | B4
binds | B5
binds | B6
binds | B7
binds | B8
binds | B9

molecular target: pm6 (human, sulfated tyrosines at Y16 and Y17); assay: ELISA on coated peptide [cont.]
Experimental: as §1

Sequence of pm6 (human, sulfated tyrosines at Y16 and Y17) (peptide, as listed by the source): as above

binding result | Binder
binds | B1
binds | B2
binds | B3
binds | B4
binds | B5
binds | B6
binds | B7
binds | B8
binds | B9

molecular target: pm8 (human, sulfated tyrosines at Y15, Y16 and Y17); assay: ELISA on coated peptide [cont.]
Experimental: as §1

Sequence of pm8 (human, sulfated tyrosines at Y15, Y16 and Y17) (peptide, as listed by the source): as above

binding result | Binder
binds | B1
binds | B2
binds | B3
binds | B4
binds | B5
binds | B6
binds | B7
binds | B8
binds | B9

molecular target: pm3 (human, sulfated tyrosine at Y17); assay: ELISA on coated peptide [cont.]
Experimental: as §1

Sequence of pm3 (human, sulfated tyrosine at Y17) (peptide, as listed by the source): as above

binding result | Binder
binds | B1
binds | B2
binds | B3
binds | B4
binds | B5
binds | B6
binds | B7
binds | B8
binds | B9

molecular target: T1, human CCR8; assay: flow cytometry, hCCR8 transfected CHOK1 cells
Experimental: Briefly, 1·10⁵ cells per well in a 96 well plate were incubated with a dilution of unconjugated anti-CCR8 mAb at 10 μg/mL then diluted at 1/3.33, 4 dilution points (during 30 min at 4° C.). […] To determine EC50 value, 8 concentrations of anti-CCR8 mAb were tested. Unbound antibodies were washed away with PBS (Invitrogen by Thermofisher Scientific, Illkirch-Graffenstaden, France) supplemented by 2% Fetal Bovine Serum (Invitrogen by Thermofisher Scientific, Illkirch-Graffenstaden, France) and 2 mM EDTA (Invitrogen by Thermofisher Scientific, Illkirch-Graffenstaden, France). Subsequently, cells are centrifuged (5 min at 400 g) and bound antibody is detected with F(ab′)₂-Goat anti-Mouse IgG (H+L) Cross-Adsorbed Secondary Antibody, Alexa Fluor 488 (dilution 1/500) (Invitrogen by Thermofisher Scientific, Illkirch-Graffenstaden, France) or with F(ab′)₂-Goat anti-Human IgG Fc Secondary Antibody, PE (Invitrogen by Thermofisher Scientific, Illkirch-Graffenstaden, France) (dilution 1/1000) at 4° C. for 30 min. Detection reagent is washed away and cells are centrifuged (5 min at 400 g) and resuspended in 30 μL PBS. Bound detection antibody is quantified on a MacsQuant16 (Miltenyi, Gladbach, Germany) (B1 or B2 channel, 5000 events per acquisition).

% positive cells | MFI fold change to isotype ctrl | Binder
90.6% | 22.7 fold | B1
81.8% | 16.2 fold | B2
66.8% | 5.06 fold | B3
81.1% | 10.7 fold | B4
57.7% | 3.84 fold | B5
73.7% | 10.3 fold | B6
75.8% | 6.81 fold | B7
65.6% | 5.35 fold | B8
78.9% | 6.36 fold | B9
